For this data set, the system named is Zif268::FokI zinc finger nuclease (synthetic). Briefly: cell_activity. The note with it: N. tabacum leaf, pLSLZ.D + p35SREP, 7 dpi; 6 of 8 sequenced resistant clones mutated.

This is an account of results in US20210054388.

For the substance “Zif268 target site in gus::nptII reporter”, the activity (% of reporter genes with NHEJ mutations) was found to be 10.
